{"source": "paper PMC10786891", "about": "“Massively parallel profiling of RNA-targeting CRISPR-Cas13d”", "binders": {"B1": {"name": "target 2 MT 5'PFS AGG 3'PFS CUG (mixed)", "RNA 1": "CACCCGUGCAAAAUUGCAGGGGUCUAAAACCUUCUCCAAAUUGUUUCAUCCU", "RNA 2": "GGGAAUGGAUCCACAUCUACGAAUUCAGGAGGAUGAAACAAUUUGGAGAAGCUGAGAUCGGAAGAGCACACGU"}, "B2": {"name": "target 2 MT 5'PFS GGU 3'PFS UAU (mixed)", "RNA 1": "B1 RNA 1", "RNA 2": "B1 RNA 2 with A27G, G29U, C52U, U53A, G54U"}, "B3": {"name": "target 2 MT 5'PFS CUG 3'PFS UAU (mixed)", "RNA 1": "B1 RNA 1", "RNA 2": "B1 RNA 2 with A27C, G28U, C52U, U53A, G54U"}, "B4": {"name": "target 2 MT 5'PFS GCA 3'PFS CGC (mixed)", "RNA 1": "B1 RNA 1", "RNA 2": "B1 RNA 2 with A27G, G28C, G29A, U53G, G54C"}, "B5": {"name": "target 2 MT 5'PFS AUU 3'PFS AUG (mixed)", "RNA 1": "B1 RNA 1", "RNA 2": "B1 RNA 2 with G28U, G29U, C52A"}, "B6": {"name": "target 2 MT 5'PFS GCA 3'PFS CGA (mixed)", "RNA 1": "B1 RNA 1", "RNA 2": "B1 RNA 2 with A27G, G28C, G29A, U53G, G54A"}, "B7": {"name": "target 2 MT 5'PFS UAU 3'PFS AAU (mixed)", "RNA 1": "B1 RNA 1", "RNA 2": "B1 RNA 2 with A27U, G28A, G29U, C52A, U53A, G54U"}, "B8": {"name": "target 2 MT 5'PFS GGA 3'PFS UUA (mixed)", "RNA 1": "B1 RNA 1", "RNA 2": "B1 RNA 2 with A27G, G29A, C52U, G54A"}, "B9": {"name": "target 1 insU 3' of 14,insA 3' of 4 (mixed)", "RNA 1": "CACCCGUGCAAAAAUGCAGGGGUCUAAAACUGAGCGGAUAACCUCUCUAUGG", "RNA 2": "GGGAAUGGAUCCACAUCUACGAAUUCGUACCAUAGAGAUGGUUAUCCGCAUCACCGAGAUCGGAAGAGCACACGU"}, "B10": {"name": "target 2 MT 5'PFS GGA 3'PFS UUC (mixed)", "RNA 1": "B1 RNA 1", "RNA 2": "B1 RNA 2 with A27G, G29A, C52U, G54C"}, "B11": {"name": "target 2 MT 5'PFS GGA 3'PFS UUG (mixed)", "RNA 1": "B1 RNA 1", "RNA 2": "B1 RNA 2 with A27G, G29A, C52U"}, "B12": {"name": "target 2 MT 5'PFS GGA 3'PFS UUU (mixed)", "RNA 1": "B1 RNA 1", "RNA 2": "B1 RNA 2 with A27G, G29A, C52U, G54U"}, "B13": {"name": "target 2 MT 5'PFS CUC 3'PFS AUA (mixed)", "RNA 1": "B1 RNA 1", "RNA 2": "B1 RNA 2 with A27C, G28U, G29C, C52A, G54A"}, "B14": {"name": "target 2 MT 5'PFS CUC 3'PFS AUC (mixed)", "RNA 1": "B1 RNA 1", "RNA 2": "B1 RNA 2 with A27C, G28U, G29C, C52A, G54C"}, "B15": {"name": "target 2 MT 5'PFS CUC 3'PFS AUG (mixed)", "RNA 1": "B1 RNA 1", "RNA 2": "B1 RNA 2 with A27C, G28U, G29C, C52A"}, "B16": {"name": "target 2 MT 5'PFS CUC 3'PFS AUU (mixed)", "RNA 1": "B1 RNA 1", "RNA 2": "B1 RNA 2 with A27C, G28U, G29C, C52A, G54U"}, "B17": {"name": "target 2 MT 5'PFS UGG 3'PFS AUG (mixed)", "RNA 1": "B1 RNA 1", "RNA 2": "B1 RNA 2 with A27U, C52A"}, "B18": {"name": "target 2 MT 5'PFS UGG 3'PFS AUC (mixed)", "RNA 1": "B1 RNA 1", "RNA 2": "B1 RNA 2 with A27U, C52A, G54C"}, "B19": {"name": "target 2 MT 5'PFS GAC 3'PFS AUU (mixed)", "RNA 1": "B1 RNA 1", "RNA 2": "B1 RNA 2 with A27G, G28A, G29C, C52A, G54U"}, "B20": {"name": "target 1 C7U,A18G (mixed)", "RNA 1": "B9 RNA 1", "RNA 2": "GGGAAUGGAUCCACAUCUACGAAUUCGUACCAUGGAGAGGUUAUUCGCUCACCGAGAUCGGAAGAGCACACGU"}, "B21": {"name": "target 2 MT 5'PFS GAU 3'PFS AAG (mixed)", "RNA 1": "B1 RNA 1", "RNA 2": "B1 RNA 2 with A27G, G28A, G29U, C52A, U53A"}, "B22": {"name": "target 2 MT 5'PFS GAU 3'PFS AAC (mixed)", "RNA 1": "B1 RNA 1", "RNA 2": "B1 RNA 2 with A27G, G28A, G29U, C52A, U53A, G54C"}, "B23": {"name": "target 2 MT 5'PFS GAU 3'PFS AAA (mixed)", "RNA 1": "B1 RNA 1", "RNA 2": "B1 RNA 2 with A27G, G28A, G29U, C52A, U53A, G54A"}, "B24": {"name": "target 2 MT 5'PFS CCU 3'PFS UAG (mixed)", "RNA 1": "B1 RNA 1", "RNA 2": "B1 RNA 2 with A27C, G28C, G29U, C52U, U53A"}, "B25": {"name": "target 2 MT 5'PFS GUC 3'PFS AGG (mixed)", "RNA 1": "B1 RNA 1", "RNA 2": "B1 RNA 2 with A27G, G28U, G29C, C52A, U53G"}, "B26": {"name": "target 2 MT 5'PFS GUC 3'PFS AGA (mixed)", "RNA 1": "B1 RNA 1", "RNA 2": "B1 RNA 2 with A27G, G28U, G29C, C52A, U53G, G54A"}, "B27": {"name": "target 2 MT 5'PFS GUC 3'PFS AGC (mixed)", "RNA 1": "B1 RNA 1", "RNA 2": "B1 RNA 2 with A27G, G28U, G29C, C52A, U53G, G54C"}, "B28": {"name": "target 2 MT 5'PFS GAU 3'PFS AAU (mixed)", "RNA 1": "B1 RNA 1", "RNA 2": "B1 RNA 2 with A27G, G28A, G29U, C52A, U53A, G54U"}, "B29": {"name": "target 2 MT 5'PFS GAC 3'PFS AUG (mixed)", "RNA 1": "B1 RNA 1", "RNA 2": "B1 RNA 2 with A27G, G28A, G29C, C52A"}, "B30": {"name": "target 2 MT 5'PFS GAC 3'PFS AUC (mixed)", "RNA 1": "B1 RNA 1", "RNA 2": "B1 RNA 2 with A27G, G28A, G29C, C52A, G54C"}, "B31": {"name": "target 1 insA 3' of 7,insU 3' of 4 (mixed)", "RNA 1": "B9 RNA 1", "RNA 2": "B9 RNA 2 with U39G, G41U, U43A, A44U, U45C, C46A, A50U"}, "B32": {"name": "target 2 MT 5'PFS UGC 3'PFS UCG (mixed)", "RNA 1": "B1 RNA 1", "RNA 2": "B1 RNA 2 with A27U, G29C, C52U, U53C"}, "B33": {"name": "target 2 MT 5'PFS UGC 3'PFS UCA (mixed)", "RNA 1": "B1 RNA 1", "RNA 2": "B1 RNA 2 with A27U, G29C, C52U, U53C, G54A"}, "B34": {"name": "target 2 MT 5'PFS UGA 3'PFS CUC (mixed)", "RNA 1": "B1 RNA 1", "RNA 2": "B1 RNA 2 with A27U, G29A, G54C"}, "B35": {"name": "target 2 MT 5'PFS UGC 3'PFS AAG (mixed)", "RNA 1": "B1 RNA 1", "RNA 2": "B1 RNA 2 with A27U, G29C, C52A, U53A"}, "B36": {"name": "target 2 MT 5'PFS UGC 3'PFS AAA (mixed)", "RNA 1": "B1 RNA 1", "RNA 2": "B1 RNA 2 with A27U, G29C, C52A, U53A, G54A"}, "B37": {"name": "target 2 MT 5'PFS UGC 3'PFS AAC (mixed)", "RNA 1": "B1 RNA 1", "RNA 2": "B1 RNA 2 with A27U, G29C, C52A, U53A, G54C"}, "B38": {"name": "target 2 MT 5'PFS UGA 3'PFS CUA (mixed)", "RNA 1": "B1 RNA 1", "RNA 2": "B1 RNA 2 with A27U, G29A, G54A"}}, "note": "Residue numbers refer to the chain shown, from its start. Names may count otherwise.", "data": [{"molecular_target": "T1, EsCas13d, nuclease-dead (Eubacterium siraeum, UniProt B0MS50, R295A;H300A;R849A;H854A)", "T1 sequence": "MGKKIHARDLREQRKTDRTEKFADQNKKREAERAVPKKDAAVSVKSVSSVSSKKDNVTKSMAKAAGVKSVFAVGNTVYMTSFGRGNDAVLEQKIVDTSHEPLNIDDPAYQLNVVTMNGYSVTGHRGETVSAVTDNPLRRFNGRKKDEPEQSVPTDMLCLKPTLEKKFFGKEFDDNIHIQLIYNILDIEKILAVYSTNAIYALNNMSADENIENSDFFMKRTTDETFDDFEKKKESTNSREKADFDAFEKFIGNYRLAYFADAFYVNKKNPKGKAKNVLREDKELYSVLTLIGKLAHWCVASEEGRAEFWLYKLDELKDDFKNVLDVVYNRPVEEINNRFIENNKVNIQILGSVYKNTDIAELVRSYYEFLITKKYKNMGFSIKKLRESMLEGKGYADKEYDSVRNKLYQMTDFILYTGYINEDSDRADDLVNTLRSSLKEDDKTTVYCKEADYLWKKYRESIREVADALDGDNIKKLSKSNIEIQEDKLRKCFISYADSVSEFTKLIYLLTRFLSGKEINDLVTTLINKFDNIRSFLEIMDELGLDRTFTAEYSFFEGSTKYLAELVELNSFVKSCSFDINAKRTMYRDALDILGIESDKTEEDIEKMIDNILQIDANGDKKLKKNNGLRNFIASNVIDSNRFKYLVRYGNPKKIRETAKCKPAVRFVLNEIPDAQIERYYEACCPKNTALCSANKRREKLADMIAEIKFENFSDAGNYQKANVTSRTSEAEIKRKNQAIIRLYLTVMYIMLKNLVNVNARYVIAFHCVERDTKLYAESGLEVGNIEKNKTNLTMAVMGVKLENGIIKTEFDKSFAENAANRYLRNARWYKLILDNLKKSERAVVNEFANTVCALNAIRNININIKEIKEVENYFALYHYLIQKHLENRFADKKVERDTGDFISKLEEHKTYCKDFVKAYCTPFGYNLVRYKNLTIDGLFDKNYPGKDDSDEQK", "assay": "crRNA (strand 1, pre-loaded); Mg2+; 40 mM Tris-HCl pH 7.5, 150 mM NaCl, 6 mM MgCl2, 1 mM DTT, 0.1% Tween-20, 0.2 mg/ml BSA; 25 C; 10 min per concentration, then washed", "details": "tags: His6-TwinStrep-SUMO cleaved; N-terminal SNAP kept (SNAP-Surface 488); label: 3' end held by stalled T7 RNA polymerase", "units": {"Kd": "nM"}, "values": [{"binder": "B1", "Kd": "7.4 ± 0.9"}, {"binder": "B2", "Kd": "17.6 ± 3.3"}, {"binder": "B3", "Kd": "5.3 ± 1.2"}, {"binder": "B4", "Kd": "13.1 ± 1.9"}, {"binder": "B5", "Kd": "7.5 ± 0.8"}, {"binder": "B6", "Kd": "8.4 ± 1.1"}, {"binder": "B7", "Kd": "16.2 ± 1.5"}, {"binder": "B8", "Kd": "18.1 ± 3.5"}, {"binder": "B9", "Kd": "26 ± 4"}, {"binder": "B10", "Kd": "28 ± 6"}, {"binder": "B11", "Kd": "18.3 ± 2.7"}, {"binder": "B12", "Kd": "41 ± 9"}, {"binder": "B13", "Kd": "2.11 ± 0.28"}, {"binder": "B14", "Kd": "1.91 ± 0.31"}, {"binder": "B15", "Kd": "1.74 ± 0.26"}, {"binder": "B16", "Kd": "2.2 ± 0.4"}, {"binder": "B17", "Kd": "5.2 ± 0.5"}, {"binder": "B18", "Kd": "5.5 ± 0.6"}, {"binder": "B19", "Kd": "12.1 ± 2.1"}, {"binder": "B20", "Kd": "~70"}, {"binder": "B21", "Kd": "11.8 ± 1.6"}, {"binder": "B22", "Kd": "16 ± 5"}, {"binder": "B23", "Kd": "6.9 ± 1"}, {"binder": "B24", "Kd": "1.16 ± 0.21"}, {"binder": "B25", "Kd": "15.3 ± 2.1"}, {"binder": "B26", "Kd": "16.8 ± 2.8"}, {"binder": "B27", "Kd": "13.2 ± 2.3"}, {"binder": "B28", "Kd": "9.1 ± 1.6"}, {"binder": "B29", "Kd": "22 ± 5"}, {"binder": "B30", "Kd": "13.5 ± 2.6"}, {"binder": "B31", "Kd": "6.3 ± 0.5"}, {"binder": "B32", "Kd": "60 ± 24"}, {"binder": "B33", "Kd": "10.4 ± 1.8"}, {"binder": "B34", "Kd": "47 ± 20"}, {"binder": "B35", "Kd": "15 ± 3.3"}, {"binder": "B36", "Kd": "14 ± 5"}, {"binder": "B37", "Kd": "13 ± 4"}, {"binder": "B38", "Kd": "8.7 ± 1.1"}]}]}
